In publication PMC1783898 one finds stoichiometry N data, which are given here for 1 substance.

For the assay, the target named is SARS-CoV main protease, full-length wild type (3CLpro) (SARS-CoV) (UniProt P0C6X7). The assay is described as follows: AUC.

For orientation: stoichiometry N means a count of units in the complex or per binding partner.

For “SARS-CoV main protease, full-length wild type (3CLpro) (from UniProt P0C6X7) (enzyme)”, the stoichiometry N was 2.
